Paper PMC5017722

Legend:
[1] = target: soluble hMPV F ectodomain (1-489, NL/1/00, G294E) with C-terminal TEV site, Foldon, Xa site and 6xHis-tag, uncleaved (human metapneumovirus, strain NL/1/00 (A1 sublineage)); test: SEC; HiLoad 16/600 Superdex 200 pg; 50 mM Na2HPO4 pH 8.0, 300 mM NaCl
[2] = target: soluble postfusion hMPV F (NL/1/00, A1 sublineage), furin-cleaved, fusion peptide residues 103-111 d (human metapneumovirus, strain NL/1/00 (A1 sublineage)); test: as above

Substance | stoichiometry N [1] | stoichiometry N [2]
soluble hMPV F ectodomain (1-489, NL/1/00, G294E) with C-terminal TEV site, Foldon, Xa site and 6xHis-tag, uncleaved (domain or fragment) | 3 | 
soluble postfusion hMPV F (NL/1/00, A1 sublineage), furin-cleaved, fusion peptide residues 103-111 d (domain or fragment) |  | 3
